The results in this text go back to patent US20150050278A1.

One assay concerns the target nucleolin (UniProt P19338). As to the kind of experiment: ELISA (FIG. 11).
The target of assay [1] is gp140. Description: ELISA (FIG. 10).
The target in assay [2] is gp140. Description: ELISA on gp140, OD405.

B1: gn1 (designed binder)
chain: APELLGGPSVFLFPPSPKDTLMISRTPEVTCVVVDVSHEDPEVKFNWYVDGVEVHNAKTKPREEQYNSTYSVASLLTVLHQDWLNGKEYKCKVSNKALPAPIEKTISKAKGQPREPQVYTSPPSRDELTKNQVSLRCHVKGFYPSDIAVEWESNGQGAKGSSGSTWGYGMDVWVPVLDSDSSFFLYSKLTVDKSRWQQGNVFSCSVMHEALHNHYTQKSLSLSPGK
Molecule B1 registered an affinity with nucleolin of 50 nM.

B2: gg37 (designed binder)
chain: APELLGGPSVFLFPPTPKDTLMISRTPEVTCVVVDVSHEDPEVKFNWYVDGVEVHNAKTKPREEQYNSTYGVSSGLTVLHQDWLNGKEYKCKVSNKALPAPIEKTISKAKGQPREPQVYTSPPSRDELTKNQVSLRCHVKGFYPSDIAVEWESNGQGARGGMNWFDPWVPVLDSDGSFFLYGKLTVDKSRWQQGNVFSCSVMHEALHNHYTQKSLSLSPGK
B2 displayed an affinity with gp140 [1] of 50 nM. In the assay with gp140 [2], the EC50 (read off the curve) is 80 nM.
